Data reported in US20200317779A1 (GREEN CROSS, published 2020).

Legend:
[1] = target: T1, CD3 on human T cells (H9 cells, ATCC HTB-176) (human); assay: flow cytometry on H9 cells, 1 µg antibody per 2x10^5 cells in 100 µl, PE anti-human IgG detection
T1 construct: whole, on cells; The target is printed as 'human T cells'
Procedure: (§1) The resultant was stored for 25 minutes in the dark at 4° C. Subsequently, treatment with 3 ml of FACS buffer was performed, and centrifugation was performed at 2,000 rpm for 3 minutes. Then, the supernatant was discarded.
as §1, with “Next, 100 μl FACS buffer containing 1 μg of phycoerythrin (PE)-conjugated human IgG antibody was used to treat the cells, and the resultant” for “The resultant”
(§2) The cells were treated with a 4% formaldehyde solution, stored in the dark at 4° C. for 30 minutes, and then treated with 3 ml of FACS buffer. Centrifugation was performed at 2,000 rpm for 3 minutes, and then the supernatant was discarded. Treatment with 350 μl of FACS buffer was performed, and a flow cytometer was used to perform affinity analysis of the antibodies for the human T cells. The analysis results are illustrated in FIG. 1.

[2] = target: T2, CD3 on monkey T cells (monkey splenocytes) (monkey); assay: flow cytometry on monkey splenocytes, 1 µg antibody per 10^6 cells in 100 µl, PE anti-human IgG detection
T2 construct: whole, on cells; The target is printed as 'monkey T cells'
Procedure: as §1, with “Specifically, monkey splenocytes were prepared at 10⁶ cells in 100 μl FACS solution per antibody sample, and then 1 μg of antibody was used to treat the cells. The resultant” for “The resultant”
as §1, with “Next, 100 μl FACS buffer containing 1 μg of PE-conjugated human IgG antibody was used to treat the cells, and the resultant” for “The resultant”
as §2, with “2.” for “1.”

T1 sequence (P07766 23-207, chain 1 of 3): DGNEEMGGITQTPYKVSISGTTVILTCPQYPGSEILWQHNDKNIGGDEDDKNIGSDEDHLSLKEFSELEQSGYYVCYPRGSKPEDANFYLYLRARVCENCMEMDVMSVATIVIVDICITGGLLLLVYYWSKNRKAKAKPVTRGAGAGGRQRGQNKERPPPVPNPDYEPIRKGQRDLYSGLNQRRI
T1 sequence (P04234 22-171, chain 2 of 3, further chain): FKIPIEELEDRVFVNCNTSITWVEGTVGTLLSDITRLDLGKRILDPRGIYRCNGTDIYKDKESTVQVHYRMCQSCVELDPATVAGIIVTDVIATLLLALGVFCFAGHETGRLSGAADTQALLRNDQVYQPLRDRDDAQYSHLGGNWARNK
T1 sequence (P09693 23-182, chain 3 of 3, further chain): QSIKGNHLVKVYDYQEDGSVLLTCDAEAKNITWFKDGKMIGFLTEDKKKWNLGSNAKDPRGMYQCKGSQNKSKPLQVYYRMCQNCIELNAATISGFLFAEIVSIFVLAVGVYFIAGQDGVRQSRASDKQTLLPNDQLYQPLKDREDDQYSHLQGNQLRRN

| Binder | Mean : PE-A [1] | Mean : Comp-PE-A [2] |
| --- | --- | --- |
| A07 (antibody, human IgG1, lambda, L234A L235A, V domains shown, humanized SP34 IgG1, lambda; also called A7) VH: EVQLVESGGGLVQPGGSLKLSCAASGFTFNTYAMNWVRQASGKGLEWVGRIRSKYNNYATYYADSVKDRFTISRDDSKNTAYLQMNSLKTEDTAVYYCVRHGNFGNSYVSWFAYWGQGTLVTVSS VL: QAVVTQEPSLTVSPGGTVTLTCRSSTGAVTTSNYANWFQQKPGQAPRGLIGGTNKRAPWTPARFSGSLLGGKAALTLSGAQPEDEAEYYCALWYSNLWVFGGGTKLTVLG | 4310 | 6680 |
| A16 (antibody, human IgG1, lambda, L234A L235A, V domains shown, humanized SP34 IgG1, lambda) VH: EVQLVESGGGLVQPGGSLKLSCAASGFTFNTYAMNWVRQASGKGLEWVGRIRSKYNNYATYYADSVKDRFTISRDDSKNTAYLQMNSLKTEDTAVYYCVRHGNFGNSYVSWFAYWGQGTLVTVSS VL: QAVVTQEPSLTVSPGGTVTLTCRSSTGAVTTSNYANWVQQKPGQAPRGLIGGTNKRAPWTPARFSGSLLGDKAALTLSGAQPEDEAEYYCALWYSNLWVFGGGTKLTVLG | 16700 | 17600 |
| E16 (antibody, human IgG1, lambda, L234A L235A, V domains shown, humanized SP34 IgG1, lambda) VH: EVQLVESGGGLVQPGGSLKLSCAASGFTFNTYAMNWVRQASGKGLEWVARIRSKYNNYATYYADSVKDRFTISRDDSKNTAYLQMNSLKTEDTAVYYCVRHGNFGNSYVSWFAYWGQGTLVTVSS VL: QAVVTQEPSLTVSPGGTVTLTCRSSTGAVTTSNYANWVQQKPGQAPRGLIGGTNKRAPWTPARFSGSLLGDKAALTLSGAQPEDEAEYYCALWYSNLWVFGGGTKLTVLG | 11100 | 13900 |
| H15 (antibody, human IgG1, lambda, L234A L235A, V domains shown, humanized SP34 IgG1, lambda) VH: EVQLVESGGGLVQPGGSLKLSCAASGFTFNTYAMNWVRQASGKGLEWVARIRSKYNNYATYYADSVKDRFTISRDDSQSTLYLQMNSLKTEDTAVYYCVRHGNFGNSYVSWFAYWGQGTLVTVSS VL: QAVVTQEPSLTVSPGGTVTLTCRSSTGAVTTSNYANWVQQKPGQAPRGLIGGTNKRAPWTPARFSGSLLGGKAALTLSGAQPEDEAEYYCALWYSNLWVFGGGTKLTVLG | 9620 | 16700 |
| F16 (antibody, human IgG1, lambda, L234A L235A, V domains shown, humanized SP34 IgG1, lambda) VH: EVQLVESGGGLVQPGGSLKLSCAASGFTFNTYAMNWVRQASGKGLEWVARIRSKYNNYATYYADSVKDRFTISRDDSKNTLYLQMNSLKTEDTAVYYCVRHGNFGNSYVSWFAYWGQGTLVTVSS VL: QAVVTQEPSLTVSPGGTVTLTCRSSTGAVTTSNYANWVQQKPGQAPRGLIGGTNKRAPWTPARFSGSLLGDKAALTLSGAQPEDEAEYYCALWYSNLWVFGGGTKLTVLG | 9530 | 11900 |
| D16 (antibody, human IgG1, lambda, L234A L235A, V domains shown, humanized SP34 IgG1, lambda) VH: EVQLVESGGGLVQPGGSLKLSCAASGFTFNTYAMNWVRQASGKGLEWVGRIRSKYNNYATYYADSVKDRFTISRDDSQSTLYLQMNSLKTEDTAVYYCVRHGNFGNSYVSWFAYWGQGTLVTVSS VL: QAVVTQEPSLTVSPGGTVTLTCRSSTGAVTTSNYANWVQQKPGQAPRGLIGGTNKRAPWTPARFSGSLLGDKAALTLSGAQPEDEAEYYCALWYSNLWVFGGGTKLTVLG | 18300 | 18600 |
| C16 (antibody, human IgG1, lambda, L234A L235A, V domains shown, humanized SP34 IgG1, lambda) VH: EVQLVESGGGLVQPGGSLKLSCAASGFTFNTYAMNWVRQASGKGLEWVGRIRSKYNNYATYYADSVKDRFTISRDDSQSTAYLQMNSLKTEDTAVYYCVRHGNFGNSYVSWFAYWGQGTLVTVSS VL: QAVVTQEPSLTVSPGGTVTLTCRSSTGAVTTSNYANWVQQKPGQAPRGLIGGTNKRAPWTPARFSGSLLGDKAALTLSGAQPEDEAEYYCALWYSNLWVFGGGTKLTVLG | 17700 | 12100 |
| B16 (antibody, human IgG1, lambda, L234A L235A, V domains shown, humanized SP34 IgG1, lambda) VH: EVQLVESGGGLVQPGGSLKLSCAASGFTFNTYAMNWVRQASGKGLEWVGRIRSKYNNYATYYADSVKDRFTISRDDSKNTLYLQMNSLKTEDTAVYYCVRHGNFGNSYVSWFAYWGQGTLVTVSS VL: QAVVTQEPSLTVSPGGTVTLTCRSSTGAVTTSNYANWVQQKPGQAPRGLIGGTNKRAPWTPARFSGSLLGDKAALTLSGAQPEDEAEYYCALWYSNLWVFGGGTKLTVLG | 16800 | 17200 |
